According to patent US6514747B2 (UT-Battelle, LLC, priority 1993, dated 2003):
Where two headings read alike, the source gives them in different places.

Key:
Format in all cases: cell-based
[1] = molecular target: T1, mouse MC5-R (Mus musculus, UniProt P41149); assay: α-MSH activation of mouse MC5-R in transfected 293 cells (adenylyl cyclase)
T1 construct: expressed in transfected cells; host or cells: 293 cells

[2] = molecular target: T2, human melanocortin 1 receptor (hMC1R) (Homo sapiens, UniProt Q01726); assay: [Ca2+]i in HEK-293 cells transfected with hMC1R; conditions: FIG. 48, plateau at 400 s
T2 construct: The coding region of the human melanocortin 1, 3, and 5 receptor (hMC1R, hMC3R, and hMC5R) genes was amplified; expressed in transfected cells; host or cells: HEK-293 cells, cotransfected with pMT4 construct and pRSV-Neo, geneticin-selected clones
T2 sequence (Q01726 whole entry): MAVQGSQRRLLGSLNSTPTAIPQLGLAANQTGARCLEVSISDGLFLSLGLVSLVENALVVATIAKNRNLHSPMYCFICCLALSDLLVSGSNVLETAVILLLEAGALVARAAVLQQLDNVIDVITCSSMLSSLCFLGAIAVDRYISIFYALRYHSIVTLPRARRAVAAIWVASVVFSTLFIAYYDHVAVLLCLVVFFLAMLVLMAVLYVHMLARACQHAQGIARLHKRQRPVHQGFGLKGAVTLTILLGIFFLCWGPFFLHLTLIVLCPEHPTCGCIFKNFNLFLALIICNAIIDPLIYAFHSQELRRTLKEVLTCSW
Procedure: The coding region of the human melanocortin 1, 3, and 5 receptor (hMC1R, hMC3R, and hMC5R) genes was amplified by polymerase chain reaction and subcloned into the vector pMT4, and the sequence was verified. HEK-293 cells, which appear to lack endogenous melanocortin receptors (Lu et al., 1994), were cotransfected with pMT4 and pRSV-Neo by either calcium phosphate coprecipitation method or the use of Transfectam reagent (Promega). Clones were selected using 600 μg geneticin/ml. culture medium.
[Ca^2+]i was measured in L6, A7r5, and HEK-293 cells (Zemel et al., 1995) as previously described and in 3T3-L1 cells as described by Klip and Ramlal (1987). Monolayers of nonfused L6 cells and confluent A7r5 cells after 14-16 h of starvation in a serum-free culture medium were rinsed with Hanks' balanced salt solution (HBSS), detached by incubation in 2 ml trypsin (0.05%) for 2-3 min at 37° C., and released by pipetting without trypsinization. Cells were harvested by centrifugation at 50 g and resuspended in 1 ml HBSS at a density of ˜10^6 cells/ml. For 3T3-L1 cells, monolayers of differentiated adipocytes were rinsed with serum-free DMEM and exposed to 0.05% trypsin for 3 min. The solution was decanted, and the cells were incubated for 3 min in culture medium. Cells were detached by pipetting and collected by centrifugation at 50 g. Cells were then incubated in culture medium to recover for 1 h followed by incubation in serum-free DMEM for 4 h at 37° C. in an atmosphere of 5% CO2, collected by centrifugation, and resuspended in HBSS at a density of ˜10^6 cells/ml. Cell suspensions were chilled on ice for 5 min and loaded with […] (final concn) fura 2 acetoxymethyl ester (AM; Sigma) in the dark for 20 min at 37° C. For 3T3-L1 adipocytes, the chilling step was skipped. […] [Ca^2+]i levels were then measured fluorometrically in suspensions using dual excitation (340 and 380 nm)-single emission (510 nm) fluorometry as previously described (Zemel et al., 1995). [Ca^2+]i was then calculated by the computer in the fluorometer with the equation of Grynkiewicz et al. (1985). […]

[3] = molecular target: T3, human MC4-R (Homo sapiens, UniProt P32245); assay: α-MSH activation of human MC4-R in transfected 293 cells (adenylyl cyclase)
T3 construct: expressed in transfected cells; host or cells: 293 cells
T3 sequence (P32245 whole entry): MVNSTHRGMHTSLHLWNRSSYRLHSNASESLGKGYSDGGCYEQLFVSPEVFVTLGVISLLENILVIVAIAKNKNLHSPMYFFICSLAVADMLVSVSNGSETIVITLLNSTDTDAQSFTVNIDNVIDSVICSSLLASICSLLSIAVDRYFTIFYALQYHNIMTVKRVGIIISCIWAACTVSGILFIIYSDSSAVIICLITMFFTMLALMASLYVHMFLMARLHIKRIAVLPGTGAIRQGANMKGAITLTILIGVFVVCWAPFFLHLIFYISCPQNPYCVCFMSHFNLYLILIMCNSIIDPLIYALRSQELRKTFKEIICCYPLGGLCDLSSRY

[4] = system: L6 skeletal myocytes; assay: [Ca2+]i in L6 skeletal myocytes (fura 2); conditions: for [Ca2+]i Increase over Baseline: 400 s, n = 8
[5] = molecular target: T4, human TSH-receptor (Homo sapiens, UniProt P16473); assay: TSH-stimulated adenylyl cyclase in TSH-R-transfected 293 cells; conditions: agouti 0.7 nM
T4 construct: expressed in transfected cells; host or cells: 293 (human embryonic kidney) cells
T4 sequence (P16473 21-764): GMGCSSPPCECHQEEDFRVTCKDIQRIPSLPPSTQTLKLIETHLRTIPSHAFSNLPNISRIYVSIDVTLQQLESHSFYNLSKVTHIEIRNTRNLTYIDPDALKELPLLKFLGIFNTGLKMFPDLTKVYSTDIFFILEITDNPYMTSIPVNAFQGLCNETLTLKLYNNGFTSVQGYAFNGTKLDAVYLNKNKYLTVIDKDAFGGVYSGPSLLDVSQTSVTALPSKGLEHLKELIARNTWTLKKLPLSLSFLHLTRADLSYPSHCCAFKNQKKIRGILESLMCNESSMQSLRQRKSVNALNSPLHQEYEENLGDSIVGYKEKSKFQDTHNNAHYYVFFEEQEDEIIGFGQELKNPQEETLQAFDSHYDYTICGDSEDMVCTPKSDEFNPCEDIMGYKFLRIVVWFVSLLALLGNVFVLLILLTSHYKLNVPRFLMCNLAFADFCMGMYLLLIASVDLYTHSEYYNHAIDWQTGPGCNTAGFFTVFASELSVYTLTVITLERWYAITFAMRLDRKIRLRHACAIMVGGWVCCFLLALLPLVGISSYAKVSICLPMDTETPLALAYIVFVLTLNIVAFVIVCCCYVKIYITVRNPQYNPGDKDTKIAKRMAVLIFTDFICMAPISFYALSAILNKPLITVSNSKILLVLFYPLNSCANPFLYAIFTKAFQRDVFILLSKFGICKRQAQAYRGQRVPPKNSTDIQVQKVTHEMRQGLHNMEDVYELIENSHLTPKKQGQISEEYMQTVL
Procedure: 293 cells (5×10^5) and 293 cells expressing human TSH-R were preloaded with 5 μCi ^3H-adenine for 1.5 h at 37° C. in a 5% CO2 incubator.
Medium was aspirated and 2.5% perchloric acid containing 0.1 mM cAMP was used to stop the incubation. Adenylyl cyclase activity was calculated by determining the percent conversion of ^3H-adenine to ^3H-cAMP as described (Salomon, 1991; Johnson and Salomon, 1991). Correlation of cAMP accumulation measured in this assay with actual adenylyl cyclase activity is made under the assumption that isobutymethylxanthine effectively blocks cAMP degradation. Data represent means and standard deviations from triplicate data points.

T1 sequence (P41149 whole entry): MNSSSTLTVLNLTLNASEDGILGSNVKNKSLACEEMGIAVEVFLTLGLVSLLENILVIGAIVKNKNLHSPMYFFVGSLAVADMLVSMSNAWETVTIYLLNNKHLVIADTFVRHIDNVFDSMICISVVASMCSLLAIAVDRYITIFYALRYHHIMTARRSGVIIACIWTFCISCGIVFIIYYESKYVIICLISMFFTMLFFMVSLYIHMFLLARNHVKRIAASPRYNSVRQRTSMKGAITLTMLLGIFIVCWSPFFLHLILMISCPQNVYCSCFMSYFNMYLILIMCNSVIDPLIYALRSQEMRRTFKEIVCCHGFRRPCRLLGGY

B1: agouti: recombinant mouse agouti protein (131 amino acids, SEQ ID NO:2) produced with the baculovirus expression system in T. ni cells (protein, listed as Mus musculus)
chain: MDVTRLLLATLVSFLCFFTVHSHLALEETLGDDRSLRSNSSMNSLDFSSVSIVALNKKSKKISRKEAEKRKRSSKKKASMKKVARPPPPSPCVATRDSCKPPAPACCDPCASCQCRFFGSACTCRVLNPNC
[1]; 100 nM agouti
  antagonism of receptor activation: unaffected
[1]; agouti 0.7 nM
  antagonism of receptor activation: did not antagonize
[2]
  Vmax of [Ca2+]i dose-response fit: 108.2±1.337
[2]; read-out: K of [Ca2+]i dose-response fit
  EC50: 18.4 ± 0.706 nM
[3]
  antagonism of α-MSH activation: potent antagonist
[4]; 5 nM Agouti
  [Ca2+]i Increase over Baseline: 49 ± 8 nM
[4]; 25 nM Agouti
  [Ca2+]i Increase over Baseline: 32 ± 1 nM
[4]; 50 nM agouti, no channel blocker
  [Ca2+]i response: 49 ± 8 nM
[4]; nonlinear least-squares, y=(Vmax·x)/(K+x)
  Vmax of [Ca2+]i dose-response fit: 123±15.63
[4]; nonlinear least-squares, y=(Vmax·x)/(K+x), read-out: K of [Ca2+]i dose-response fit
  EC50: 62.1 ± 19.4 nM
[4]; response plateau at 400 s, read-out: apparent EC50 of [Ca2+]i response
  EC50: 62 ± 19 nM
[5]
  effect on ability of TSH to bind its receptor and stimulate adenylyl cyclase: no effect
